Experimental data taken from the DeepSol protein solubility set.

Assay: soluble on expression in E. coli; label from the status in PepcDB or PDB records

Sequence | soluble on expression in E. coli
MSLAQVEQVIQVGHLLDVRTGNYQKNKAILVEAGRISAIVDADQAPKNVQVIDLSTHYVVPGLIDMHVHLTSDPQKHGYRGLVETPTREAIFGVSAAKATLKAGFTTVRNLGAAGFADVSLRDAIDDGEIQGPRMRVAANTICITGGHCDNNLLPHIYNSRSAGVANGPDEVRAKVRENIKYGADVIKFAATGGVLSKNTDVNASQYNFEEMKALIDEAHDRGRIVAAHAHGLQGIKRAIEAGVDSIEHGSFIDDDAIKLAKKHGTYLVMDVYVSDYILSEGEKAGILPESLAKEKKVGLLQRQNFQKAVKAGVKMAYGTDAGVYTHGLNGRQFAYMVQWGMTPLQAIQAATVNAGTLLNWKNEQGQQNVGVLEVGAFADLVAVPVDPLTQEGHHHHHH | soluble
MSLARFVVLVIDSFGVGAMKDVTLVRPQDAGANTCGHILSQLPHLQLPTLETLGLINALGYAPGDMQPSDSATWGVAELQHEGGDTFMGHQEILGTRPLPPLRMPFRDVIDRVEQALVSAGWQVERRGDDLQFLWVNQAVAIGDNLEADLGQVYNITANLSVISFDDAIKIGRIVREQVQVGRVITFGGLLTDSQRILDAAESKEGRFIGINAPRSGAYDNGFQVVHMGYGVDEKVQVPQKLYEAGVPTVLVGKVADIVNNPYGVSWQNLVDSQRIMDITLNEFNTHPTAFICTNIQETDLAGHAEDVARYAERLQVVDRNLARLVEAMQPDDCLVVMADHGNDPTIGHSHHTREVVPVLVYQQGMIATQLGVRTTLSDVGATVCEFFRAPPPQNGRSFLSSLRFAGDTLEGHHHHHH | soluble
MSLARLEPWAEKLTSDPATCRHLIEEFGSPVNVLHSGSMPRNINELVDAGIQMGVDTRIFFARKANKGLTFVDAVKDTGHGVDVASERELSQVLNRGVPGERIILSAAIKPDRLLALAIENGVIISVDSRDELDRISALVGDRVARVAPRVAPDPAVLPPTRFGERAADWGNRLTEVIPGVDIVGLHVHLHGYAAKDRALALQECCQLVDSLRECGHSPQFIDLGGGVPMSYIESEEDWIRYQSAKSATSAGYAESFTWKDDPLSNTYPFYQTPVRGNWLKDVLSKGVAQMLIDRGLRLHLEPGRSLLDGCGVTLAEVAFVKTRSDGLPLVGLAMNRTQCRTTSDDFLIDPLHITDGDVGEEIEAYLVGAYCIEDELILRRRIRFPRGVKPGDIIGIPNTAGYFMHILESASHQIPLAKNVVWPEGQLDDIDADEGHHHHHH | soluble
MSLATKFQESEQQGRKREFMNQRNAFFILELELTQEETDAFLPLYNELDTKRYELWKDVRQKRALMERKAELTDADMELIINKSLDNKIAEARLEKEYYYKFKRVLPMRKVMALKVAERKFARLFLKSSYDEGHHHHHH | soluble
MSLAYKPDDAAPFRSVTRQVLFSDLRLGCEWRYFEVAEGGYSTLERHQHVHATMIHRGRGQCLVGDVISDVAVGDLVFIPPMTWHQFRANAGDVLGFLCLVNADRDREGHHHHHH | not soluble
MSLCELLGMSANVPTDIVFSFTGLMQRGGGTGPHRDGWGIAFYEGRGVRLFQDPLASVDSEVARLVQRFPIKSETVIGHIRQANVGKVGLSNTHPFIRELGGRYWTFAHNGQLADFQPKPGFYRPVGETDSEAAFCDLLNRVRRAFPEPVPVEVLLPVLISACDEYRKKGVFNALISDGDWLFTFCSSKLAYITRRAPFGPARLKDADLTVDFHAETTPDDVVTVIATEPLTDNENWTLQQSGEWVLWWGGEVLAKGEGGSHHHHHH | soluble
MSLDAHAQSYYRDCYRGAANMVRAMQKRANTLLSAGQTIADRQHKFIRSGRLRDKQPLTMTLIAQEAGLNKSTISRALSNCRIRLDSGIFPAEHFLARPLSDDTPDRTRDQVLQRLRLLIETENPRSPMSDQVLARQLGKARLSISRRTVAKYRQFLQIPGAYERKRNTEGHHHHHH | not soluble
MSLDEKLRTSGVQVIGDIAWGTHFCQFYRTQEELVNVVCPYLKAGLEGNELCIWALPRDFETKKEAEGPLRRTIPKLDIYLEKGQMEIISYKDRYAEKEIPDSKKALENLIKKADYALLNGYSGLRLVQDTSWLKNDWKNLTGYEEELDIAIENRRITALCTYSSGKFDTDETIYAALSHRFVLVKKEGNWEKVENPRLKKAEERVIQPSEEVETKTEEENENLKKLLEERTVELTEAYKSLKVNEKQFLQIRKMTHIGNWKWDILTGELHWSDEVYRIFGRDPERFKATCDAFLGSVHPDDREYLINSIKKDFDEQIRNIDYRIVLPDGEERTVRTRVEITFDEENQPVRAEGIVQDITELKRIEKALQEREEQYRAFFENSMDAVLFASPDGTIHAANKAACKTFGMTEKEIIRAGRNGIVDQSDPRLKPSLEERNSTGRFKGEINHKRKDGTIFPGEVSTALFKDKNGLMKIVIIIRDITERKKAEEVLRKSEEHYRMLFTNEGHHHHHH | soluble
MSLDFEYVTGEEGLKKAIKRLENSPYLYLDTETTGDRIRLVQIGDEENTYVIDLYEIQDIEPLRKLINERGIVGHNLKFDLKYLYRYGIFPSATFDTMIASYLLGYERHSLNHIVSNLLGYSMDKSYQTSDWGASVLSDAQLKYAANDVIVLRELFPKMRDMLNELDAERGEELLKTRTAKIFDLKSPVAIVEMAFVREVAKLEINGFPVDVEELTNKLKAVERETQKRIQEFYIKYRVDPLSPKQLASLLTKKFKLNLPKTPKGNVSTDDKALTSYQDVEPVKLVLEIRKLKKIADKLKELKEHLKNGRVYPEFKQIGAVTGRMSSAHPNIQNIHRDMRGIFKAEEGNTFVISDFSQIELRIAAEYVKDPLMLDAFKKGKDMHRYTASVVLGKKEEEITKEERQLAKAINFGLIYGISAKGLAEYAKLGYGVEISLEEAQVLRERFFKNFKAFKEWHDRVKKELKEKGEVKGHTLLGRRFSANTFNDAVNYPIQGTGADLLKLAVLLFDANLQKKGIDAKLVNLVHDEIVVECEKEKAEEVKEILEKSMKTAGKIILKEVPVEVESVINERWTKEGHHHHHH | soluble
MSLDGIIPVVEKKDFLRWFLKEFTLKKRECSWLLNYLMSDDDLMENVHFVEEAERCPKALIMSTNDVHTVPFCFHKYQQVTMDAEKAFHDIRMNPEEAIYIQLHFSGAKHNPNYIAVLEDNPYVPENEDLIAKQKKLAEAFLERSVQSFEEKELLRRIDEALDARDKETFLTLSQQLQHLRQHSDEGHHHHHH | soluble
MSLDGPVVFICGKCKLPVGDSLSWDGSEDEQNQIRLKRVTDNVYVGKENRMYEVGKRSLCLIVDLLCQGCHSVLGMVYASTPKNMDHKRFTFCLNVADIDSYVLGSASQSLAAGGAGEQPVTLEYRSQVEEQLSQMKMLVMSMALKLEEIEIGRREGYEREGHHHHHH | not soluble
MSLDIILDQPEQMLFALLRSALNSTKPVSEILFTDISPALWQACYRLACTQGVMALAWDGIQTLPACLQPPKALKLNWAMAVENYEKRYLRYCHTIAELSAFYKTHGITTVQLKGVGLSTYYPIPSHREGGDIDIFTYSADHSRKSDAEANRLADRLMEEKGIEVDFEHSEKHSMFYYKGIPIENHKTFINSETYRIAVKMDKLLQKLLQPVSAELDGKCSILIPSSTFNTVFLAFHAAQHYARGLALHHLCDWACLLNRYDLHIPEEVTDIRFRNMILAMTRLCNDYLGTSVPVYGGEELAEEILREIIRPPYTMSVPAKNKWGILVYKTKRMLHTHRACNSVLRISLCKWVGNSILLHLRSPHTIFQTEREGHHHHHH | soluble
MSLDIRGIGYLGFESPNIEAWRSYGPEVLGLAIAPSPEDEPDALYLKMDDRRYRLAFQPGPIDKLAYIGWECVNRIAFEKAVKKLQDAGIAVEMGSDDLKARRAVRDVVRFKDPVGYQYELFYGQKGEPDSFVPGRRHGGFNTYGRGFGHVVVMTPEYGPELDDFLINIMGFQWYGSGAGKGKTGFYRAGLNNLTSHDIGYGHAPGRMGIQHIGLLTGDLRDVGETWDIVNKRQIQVQMTLGQHTQDPHFSFYHFSPSGFAVEVIAETHPWPGDPFELNAERLSYWGHQLVGPILGTEGHHHHHH | not soluble
MSLDIVLVGCKGFGKEHLRIYSKLGYDVSIVERDSNEAKRCSELFRVYKVYDNYEDALRSGSNIVDLVVPDGLHYEMGSLALKSKKHLLVEKPITPDIDSGISLIQQAEESKLKLMVAEQFYFDPSVNEAIRRINNGEIGKPHTVIVRHQSFRELKGWRNEKSMMGRGILIDEGTHYIDTLLNFGGRYRSLRSFVHRTWDFLGEDTAEAVFNFENGMHGLFFYSWNYPEYPLLPEFEIIGDAGSIYEDIGTKPTEPWDQRKRKTAYGDIIVNGKHIPVEPYDVIEREISGFLNAVEKDEPVPMPPDLALRDIITIDRIYKASSDEGHHHHHH | soluble
MSLDLASKYFNDIDWRYVDHSSGLAPMQSFAFDDTFSESVGKDLSCNVVRTWIHQHTVILGIHDSRLPFLKDGIKYLTDEIGYNAIVRNSGGLGVVLDQGVLNISLIFKGQTETTIDEAFTVMYLLICKMFENEDVEIDTREIEHSYCPGKFDLSIDGKKFAGISQRRVRGGIAVQIYLCVEGSGSERAEMMRVFYEHALKGEVTKFKYPDIHPECMASLETLFEREIKVQDVMFQLLHAIKDLGGNLNMDPITEDEWTRYEGYFDKMIDRNEKMNRSIEADEGHHHHHH | soluble
MSLDNHNPKKSTTPNNEFHKKIATTGKIINLPKQSIVPAVSISVYNDMKTIVLTPMEFQLSSIGFQFQNLIIDLPHSTISTNCITFYYHQDHILIDLIDQNYLFITLKIAIDRFILGGQQLTLDNFEEWGYISVPYSFELRSSPFLLKCLDNLNLIVSLKDGGLLHFKRDEELGEINVFNFQEQGTLIPFLGFFGSGKQKDVVLDGVSSNSIVDALQIGGSGVVITLSVNKVLKLWNLDGHQNLSSLTIASDDNTWLPTIPSKYLKSYDQEDGKTIITLFINTKSGDSSKSMFVFKSFELESSNEGHHHHHH | not soluble
MSLDRFVVTYRIVAEDEADAAARAASIALEDTVEIPRDVVPAGYVEDVVLGRVESVTARGGGVWTALIGYHVDAVGRELPQLLNVILGNASILRGVKAVDLAPDAALAERFPGARFGAAGVRRLTGRASGGFVCPVIKPQGSSAETLARLCYLSAVAGADIVKEDHGLANQDAAPFRERIGACAEAVGRANAERRDQGDTTQALYFANLCGPPHQLRDQAYYAKESGAHGILLIPGLHGFDAMFELAQDPDFDLPIMAHPSHLGPYVLSPDHGYGHGMLFGQLMRLAGADISVFPNHGGRFGFSVDECEEIVRACRDPEGLGPAILPSPGGGMSPERLPDMMAQYGEDCVYLLGGSLLRAGDRIGELIAEMRAALSGRDEGHHHHHH | soluble
MSLDSHRISVLHVDDEPGLGETTAEFLRQQSDGFSVETATSTSEGLKRLTEAPFDCIVSDYDMADMDGIEFLRAVRAEYPDLPFVLFTGKGSEEVASEAVSAGVSDYLQKRGGTERYTLLANRITNLVTQHRAEERLRTRVQQQEAVADLGQYALTGCGLDALFERAVESVAAGLNTEYSKVLEYRPADNKFLLRAGVGWQSGLVGEAAVGAGEESQAGYTLQTEEPVVVEDLRTESRFSGPSLLLDHGVVSGISVIIGTTTEPWGVLGAHTSERRPFTKDDITFVRGVANTLTNAIEREQLEGTLRQAEQRYKTLLENFPGGGVFLFDDDLRYLIARGEGLSAFGLTPADVEGKTLAEVFPPAVVERQKPKYRAALDGETQVWTQEYEGKQYRLSTLPVTGSSDKQLGMVVSMDITGLSASEGHHHHHH | soluble
MSLDSIELMAKIHASARWSEAALQILADETRRILKHEAGTRAGEDPEQLHQMRVGIRRLRSALRLFEPALKLPKPARRRSLSPLAAVLGSVRDLDVQMEMLRERYLGALPEGEQQALERLLAHLESLRTQARSAMLRYLDGLDYEQFKSAYTEFLESPKFRRGADESLYHLLPAFLREALSTLWAHPGWEEPDVETMHDLRIAVKRVRYNLEFFLGCYGKAVRSLHGELKRIQEELGIIHDCDVLLGQLHTEPLGPATPWQQPFSRLTALVRNERRNAVRRFRRLKTRLLSEDMRNSLAVWVSWPGTADDEGHHHHHH | not soluble
